The labels stand for the following.
B1: FRA1 C-terminal tail fragment (amino acids 616-1035), C-terminal 6xHis fusion (domain or fragment, Arabidopsis thaliana, UniProt Q8GS71 616-1035, looked up)
chain: ARRLQDEIQSIKAQKVQLQHRMKQEAEQFRQWKASREKELLQLRKEGRKSEYERHKLQALNQRQKMVLQRKTEEAAMATKRLKELLEARKSSPREHSAGTNGFGTNGQTNEKSLQRWLDHELEVMVNVHEVRHEYEKQSHVRAALAEELAVLRQVDEFAVKGLSPPRGKNGFARASSLSPNARMARISSLENMLVISSNSLVAMASQLSEAEERERAFTNRGRWNQLRSMGEAKNLLQYMFNSLAETRCQLWEKDVEIKEMKDQFKEIVGLLRQSELRRKEAEKELKLREQAIATSLGTPPSSVKHVAEDLSTPSPMTVPAQKQLKFTPGIANGKVRGPAAFLDTNKKMVPMGQVSMRKLSAVGKQGGRLWRWKRSHHQWIVQFKWKWQKPWRLSEWIRTSDETLLKSKPRLKALPNKIM

The target in assay [1] is T1, MBP-tagged CKL6 (casein kinase1-like 6) (Arabidopsis thaliana, UniProt Q8LPJ1 1-479).
T1 sequence (looked up): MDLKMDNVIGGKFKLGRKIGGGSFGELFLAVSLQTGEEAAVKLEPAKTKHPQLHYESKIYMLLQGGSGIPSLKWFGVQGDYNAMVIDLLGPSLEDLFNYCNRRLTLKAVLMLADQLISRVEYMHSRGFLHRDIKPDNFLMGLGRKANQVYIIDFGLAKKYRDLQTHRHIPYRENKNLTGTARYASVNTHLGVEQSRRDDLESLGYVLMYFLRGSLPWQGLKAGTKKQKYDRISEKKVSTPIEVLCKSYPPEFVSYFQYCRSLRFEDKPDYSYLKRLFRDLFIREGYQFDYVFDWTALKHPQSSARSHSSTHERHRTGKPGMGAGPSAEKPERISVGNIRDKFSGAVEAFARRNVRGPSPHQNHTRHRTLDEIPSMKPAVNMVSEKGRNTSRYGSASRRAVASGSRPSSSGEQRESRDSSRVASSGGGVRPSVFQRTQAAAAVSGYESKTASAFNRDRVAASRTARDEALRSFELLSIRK
Kind of assay: pull-down.

The target of assay [2] is B1. In words: pull-down.

Consider two molecules from publication doi:10.1101/760389 (bioRxiv, 2019).

On to B1, for which the binding result in assay [1] is recorded as “binds”.

B2: MBP-tagged CKL3 (casein kinase1-like 3) (enzyme, Arabidopsis thaliana, UniProt Q93Z18 1-415, looked up)
chain: MERIIGGKYKLGRKIGGGSFGEIFLATHVDTFEIVAVKIENSKTKHPQLLYEAKLYRILEGGSGIPRIKWFGVDGTENALVMDLLGPSLEDLFVYCGRKFSPKTVLMLADQMLTRIEFVHSKGYLHRDIKPDNFLMGLGRKANQVYLIDFGLAKRYRDANTNRHIPYRENKNLTGTARYASCNTHLGIEQSRRDDLESLGYVLLYFLRGSLPWQGLKAVDKKQKYDKICEKKISTPIEVLCKNHPVEFASYFHYCHTLTFDQRPDYGFLKRLFRDLFSREGYEFDYIFDWTIIKYQQAQKSRNQSQAVPGSSNPRAMPVDTSNHRGGPNISYEAEASERVRSANAIGPSPQINNNTAAGRTPGFDHPVHKNMNMPSTSLSPAGTSKRNVGPETSNSGYGSGNRTGWTSSFMSPEK
In the case of B2, the binding result in assay [2] is recorded as “binds”.
